Data published in US20240117030A1 (Pfizer, published 2024).

Target: T1, human IL-12 (p35 + p40) (human, UniProt P29459 23-219; P29460 23-328)
T1 sequence (looked up) 1: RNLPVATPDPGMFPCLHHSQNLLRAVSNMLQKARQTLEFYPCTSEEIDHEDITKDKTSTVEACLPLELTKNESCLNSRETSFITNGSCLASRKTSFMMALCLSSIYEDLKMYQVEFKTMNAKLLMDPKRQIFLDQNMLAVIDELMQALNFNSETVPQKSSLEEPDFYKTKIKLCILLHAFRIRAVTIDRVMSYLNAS
T1 sequence (looked up) 2: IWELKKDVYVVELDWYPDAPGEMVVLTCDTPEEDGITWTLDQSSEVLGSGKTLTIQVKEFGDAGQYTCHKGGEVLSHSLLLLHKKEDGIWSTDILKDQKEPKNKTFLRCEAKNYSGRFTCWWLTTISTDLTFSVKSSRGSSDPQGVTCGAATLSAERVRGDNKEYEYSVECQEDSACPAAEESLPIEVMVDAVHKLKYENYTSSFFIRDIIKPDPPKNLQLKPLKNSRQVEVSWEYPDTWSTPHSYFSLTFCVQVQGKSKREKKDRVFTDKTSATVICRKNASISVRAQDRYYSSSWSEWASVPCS
Assay: cell-based or functional assay

B1: p40-0003 (antibody, human IgG1, kappa, V domains shown)
VH: EVQLVQSGAEVKKPGESLKISCKGSGYSFTTYWLGWVRQMPGKGLDWIGIMSPVDSDIRYSPSFQGQVTMSVDKSITTAYLQWNSLKASDTAMYYCARRRPGQGYFDFWGQGTLVTVSS
VL: DIQMTQSPSSLSASVGDRVTITCRASQGISSWLAWYQQKPEKAPKSLIYAASSLQSGVPSRFSGSGSGTDFTLTISSLQPEDFATYYCQQYNIYPYTFGQGTKLEIKR
In the case of B1, the “anti-IL12 bioassay IC50” value is reported as 0.286 nM.
